# Results reported in the domain aggregation screens of Martell et al. (2025).
# Test: soluble fraction after stress (log2 fold change); higher = more stays soluble; pooled small domains, quantitative proteomics
# Details: stress: pH 4
# Summary of the method: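 Aggregation propensity is read out as the fold change in how much of each domain remains soluble after acid stress. The custom small-domain libraries were pooled, held at pH 4 and analysed with high-throughput quantitative proteomics. On the log2 scale used, higher values mean more of the domain stayed soluble.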
row,Sequence,soluble fraction (log2)
1,HMVTPPMVVVDVQGEVKTPGVYHLPTNSRVNDAIKAAGGPKQSADLSYINQARMVKDGEQIYVEKKL,0.0679
2,HMYLYHDLSDEAKAMGDEYVSVEHLVLALIRYPNNAVKELFREFGITRERFLQVLSTIRGNQRVTSDNPEA,-0.194
3,HMKILALETSAKAVSAAVSENGRILASGYQDTGLTHSRTLMPIVEHILKNTDLKLSDMDAIAVAVGPG,0.22
4,HMIIIPKKDYDVSQLDNLVSWLKDRGLEVHISRGENLTVIGLIGDTSKIDIDLIRSLDVVEEVKRIQ,-1.31
5,HMRTVPEALLGRAYETAETAIVLEGLEAKRTDVFHPTIGNGTVIRLEPASGSQVSAGGVIEIFVSKGTETI,-1.31
6,HMSMVGNIEKILVTGESKKSSELLAGRTENNRVVNFTGEKVLIGSMVNVRIEEVFPNSLGGSYLPS,0.0322
7,HMRQYTPEQLETAVLVLEEVRQGRRLDRALRSHPMPDGRLIAKHVLVAAYRKLVAEGTWKEDPEFLSRIRM,0.116
8,HMQITQSSEPIDVSALRLGMFIHLEGGWLSHPFPRSSFKITSEDQLVTLRSLGISVLRWSPELSDPE,-1.46
9,HMEREQNILQGREVVERELRRLGLAEAYTVSDIAKALKFDDEEQFLAKVGFGDIQSRQISGAIALMEKN,-0.553
10,HMATINGIEKYLSSGLIPGIGPHTAKKLVEKFGLDTLDIMQYNPDRLTEVEGIGDKKAAKISEAFQEQK,-0.191
11,HMTGSLRIKHKTYYMLFSWKDESGQWRQKSESTGIPERGGKRKAQEMLNTRLEELQLQSTASL,0.199
12,HMAMLSKREAEILKLTAKGHSSTDIAQRLTISVNTVEFHRRRIMQKLNAANVAEAVGKAAELGLFF,-0.47
13,HMAPQSAAAILRYLSSGAIRGVGPATAQRIVERFGTDSLEIIQNRPKELAAINGISINKALSISEEYAKQY,-0.0357
14,HMPREQQENVYLLEKAKRLYEEYLGDQRQTIGHALAQFERVLESQDPAAIRRAQKEFGEFLERYDG,-0.139
15,HMNEAMIMIDLKGKSRDEAVKELDELNLKYRFTGNGIVKDQKPKAGEEINSDTVVEVELSEIK,-0.105
16,HMDGEAQTYVEYGKWFPADLPLEAVRQLADGVPVTKELVAALNPRRSEWEEIKAGLDKIGYPNELL,-0.567
17,HMRSISVEMDGKEYLIPTVSENGKVLSDDDAVKQFKKTGKHLDVFDSPEDATAYARQLHEDQESFYA,0.22
18,HMHKTEIKIPSREDILAVLRQAQAPLTREQVFEHLKLTEDQIPIIEKRLNAMERDGQLMPNRKGMLLLSTK,0.00265
19,HMRSKTDLVYEEIKKLILRGELSSDTPISENHLARRFEISRTPIREALKRLHIEGFVRIIPNHGVFVR,-0.304

row,Sequence,soluble fraction (log2)
1,HMENRILIPTAENIGERLDRYISSELDAPRSQVQIWIDSGLVAVSGGLKPKNYRLREGDEIEVTIPDPV,-0.0637
2,HMVDKNDLTAIDGIGPFLEKKLNDVGVFTYADIAGWDAAKIEEITQQISFFEGRIEKDDWVGQAQKLIDDQ,-0.704
3,HMKTEIGQAMRKLRKAKKMTQDTLAEKLGVAPANISRYEKGQQGIEVDKLPTLADALGVSVPEFFAIASG,-0.142
4,HMLFQQPATMIGKIGVAMSDLRPSGKIKIDDEWYDGQSEGDYILKGQEIIVVQVMNAYLIVRL,-0.44
5,HMLEDYFKEEEYTEVLKIPKEYIKGFQYYLIEDAEFVNALRAKNKTMTLFLAKKLASDYIEIIRREQ,-1.31
6,HMSQSDLASAIGARVTIRLREASGGFRDIVGVLQRFGSGYGELINSKGEALTFSESEIAIWREVKA,0.361
7,HMRFQGKISDWNDEKGYGFVEPNGGGTRAFVHIKSFTDLPRRPINGDIIIYETTTDEKNRVQANNISFTR,-0.163
8,HMADLKRLNEQIHYLGQYLSTKATYKEFLQANNKKIYRSEHQDEIAKYEEAAQFLKRSSPDGTIPTMKDLR,0.0861
9,HMDEPVDRLSPREQEVLALMAEGRSNAAIAHRLSITEKAVAKHINSIFTKLDLPLDEDDHRRVRAVLAWLR,-0.464
10,HMDRRIDIANAVKTALGSLPERQKTAIVLVHYEGFSGAETAKLLGISVEAVESLLARARRNLRQTLGP,-0.586
11,HMKKLTAEEIQEAKDILEKIQEIPNFKKIFGDDTIKALENSTKTGVLLPDNIISKIHTLMIRFGIK,-0.248
12,HMTGLSFEEKDLLGNALKLLDETERRIVILHATSGLKHREIAKQLDIPLPTVLSKYTRAIKKLKKHME,-0.144
13,HMAAAKDVMDWQNAIRGLTDAKGKPYSPTYLKTVHNQLSALFNHAVRYYGLQVNPAAKAGNMGVEE,0.00664
14,HMGKDLLGYEVFAESGDLVGILKDVMWLPHSDVYVITKGGKEFLIPVIPEVVKGINHEQGVIVISPMEGLL,-0.572
15,HMDTEIGDILALRQIMELLDEKDRQLIIMRYFQGLTQSVTAKNLNMTQVQVSRREKKLLTFMREQLL,-0.761
16,HMPIGENIKRLRIMHGLSQKELAQIAGVSDKAVSTWENGTKEPRMGAVQKITGYFGLKKSNLIEDNGL,0.0537
17,HMRTAFPQLTERELEILDLIAAGRNNAQIASALYLAPKTVRNNVSNILAKLQATDRAEAIIRARDAGLGG,0.273
18,HMSSHSAEAVRHRIKSMIDHEARDGDVLSDDRIVELLNQAGIDIARRTVAKYREALRIPSSVERKRRLKA,0.0173
19,HMDEIELLLQDAIQKLPEKQRMVFTLRYYDNLPYEEISKILDMSVSTLKTNYHYAKSKIEQYILDHS,-0.839
